Assay results from the nanobody polyreactivity screen of Harvey et al. (2022).

Experiment: yeast display, Sf9 membrane polyspecificity reagent, FACS + sequencing; frameworks hold sequencing errors
Method in brief: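 Nanobodies came from a synthetic yeast display library in Saccharomyces cerevisiae BJ5465, induced with galactose for 36–48 hours and stained for 1 hour at 4 °C with 10% biotinylated, detergent-solubilized Sf9 membrane reagent. Cells were enriched on streptavidin microbeads and then FACS-sorted, with low and high (top ~1%) gates set on anti-HA fluorescence for expression and streptavidin fluorescence for reagent binding. Each polyreactivity label reflects the gate a clone came from. Genes were amplified by colony PCR, sequenced by MiSeq 2 × 250 and filtered by CDR length.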

QVQLQESGGGLVQAGGCLRLSCAASGSIFTYAVMGWYRQAHGKEHELVATIDTGSSTYYADSVKGRITISRDNAKNTLYLQMNSLKPEDTAVYYCAVNTYCRVRYRYWGQGTQVTVSS
polyreactivity (PSR sort gate): high polyreactivity

QVQLVESGGGLVQAGGSLRLSCAASGSTFYSYGMGWYRQAPGKERELVAAITEDGDTTYYADSVKGLYTISRDNAKNTVYLQMNSLKPEDTAVYYCAAETYYLDDYWGQATQVTVSS
polyreactivity (PSR sort gate): high polyreactivity

QVQRVESGGGLVQAGGSLRLRCAASGFTLGHYAMGWYRQAPGTERELVAVITSGSSTNYADSVKGRFTISRDNAKNTVYLQMNSLKPEDTAVIYCAAEHPYFIWLYYYWGQGTQVTVSS
polyreactivity (PSR sort gate): low polyreactivity

QVQLVESGGGLVQAGVSLRLSCAASGRTFRGYAMGWYRQAPGKERELVAAISSGGSTYYADSVKWRFTISRDNSKNTVYLQMNSLKPEDTAVYYCARAVGNYRTLEFDYWGQGTHVTVSS
polyreactivity (PSR sort gate): low polyreactivity

QVQLVESGGGLVQAGGSLRLSFAASEGWYRQAPGKERELVAAISYIGGSTYYADSEKGRFTISRDNAKNTVYLQMNRLKPEDTAVYYCAKGYPDPKWGGVLAYDYWGQGTQVTVSS
polyreactivity (PSR sort gate): low polyreactivity

QVQRVESGGGLVQAGGSLRLSCAASGRTVGYYAMGWYRQAPGKERELLAAITRTGGSTHYADSVKGRFTISRANAKNTVYIQMNSLKPEDTAVYYCARDYRYTIPYDYWGQGTQVTVSS
polyreactivity (PSR sort gate): low polyreactivity

QVQLVESGVGLVQAGGSLRLSCAASGLIFYRYAMGWNRQAPGKERELVAAISWSGGTTYYADSVKGRFTISRDNAKNTVYLQMNSLKPEDTAVYYCAATRLRTEYYWGQGTQVTVSS
polyreactivity (PSR sort gate): high polyreactivity

QVQLVESGGGLVQAGGSLRLSCAASGRTFYLNAMGWYRPAPGKDRELVATITSRAGSTRYADSVKGRFTISRDNAKNTVYLQMNSLKPEDTAVYYCAVRSTDPYRRGPSYYYWGQGTQVTVSS
polyreactivity (PSR sort gate): high polyreactivity

QVQLVESGGGLVQAGGSLRLSCAASGFTFWDYAMGWYRQAPGKERELVATISSDGSTNYADSVKGRFTISRDNAKNTVYLQMNSLKPEDTAVYYCAADGYLYFWYPYDYWGQGTQVTVSS
polyreactivity (PSR sort gate): low polyreactivity

QVQLVESGGGIVQAGGSLRLSCAASGRNFYYYAMGWYRQAPGKERELVAAISWSGGRTYYADSVKGRFTISRDNAKNTVYFQMNSLKPEDTAVYYSNAEPPRGYSVSSGGEMDYWGQGTEVTVSS
polyreactivity (PSR sort gate): low polyreactivity

QVQLVESGGGLVQAGGSLRLICSASGRIFSYNVMGWYRQAPGKEREVVAAITSNDGSTYYADSVKGRFTISRDNAKNTVYLQMNSLKPEDTAVYYCAAPYDYAEYYYWGQGTQVTVSS
polyreactivity (PSR sort gate): low polyreactivity

QVQLVDSGGGLVQAGGSLRLSCAASGFIFDTNVMGWYRQAPGKERELVAAISWDVDSTYYADSVKGRFTISRDNAKNTVYLQMNSLKPEDTAVYYCATETFDYYGLAGEYWGQGTQVTVSS
polyreactivity (PSR sort gate): high polyreactivity

QVQLVESAGALVQAGGSLRLSCAASGPTFSHNAMGWDRQAPGKERELVASIRSGGLTDYADSVKGRFTISRDNAKNTVYLQMTSLKPEDSAVFYCIAEGVWWSTRYDSWGQGTQVTVSS
polyreactivity (PSR sort gate): low polyreactivity

QDQLVESGGGLVQAGGSLRLSCAASGIIFKFNVMGWYRQAPGKERELVAAISTGGSTYYADSVKGRFTISRDNAKNTVYLQMNSLKPEDTAVYYCNAVSPLSIWSSRDGWYGYWGQGTQVTVSS
polyreactivity (PSR sort gate): high polyreactivity

QVQLVESGGGLVQAGGSLRLSCAASGSTFAANAMGWYRQAPGKERELFAVIRRGGSTTYADSVKGRFTISRDNAKNTVYLQMNSLKPEDTEVYYCNARVTLGRPLFTYLVRYEYWGQGTQVTVSS
polyreactivity (PSR sort gate): high polyreactivity

QVQLVESGGGLVQAGGSLRLSCAASGFTFNRNAMGWYIQAPGKERELVAAISWSGGSTYYADSVKGRFTISRDNAKNTVYLQMNSLKPQDTEVYYCAKGYRRVYGPFYFWGQGTQVTVSS
polyreactivity (PSR sort gate): low polyreactivity

QVHLVESGGGLVQAGVSLRLSCAASGRIFEENAMGWYRQAPGKERELVAAITYSGGSTYYADSVKGRFTISRDNAKNTVYLQMNSLKPEDTAVYYCAATVDLVYIDYDYWGQGTQVTVSS
polyreactivity (PSR sort gate): low polyreactivity
